This is an account of results in the nanobody polyreactivity screen of Harvey et al. (2022).

The nature of the data set: yeast display, Sf9 membrane polyspecificity reagent, FACS + sequencing; frameworks hold sequencing errors. The procedure, abridged:
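Nanobodies from a synthetic yeast display library (Saccharomyces cerevisiae BJ5465), induced 36–48 hours with galactose, were stained 1 hour at 4 °C with 10% biotinylated, detergent-solubilized Sf9 membrane reagent, enriched on streptavidin microbeads, then FACS-sorted. Anti-HA (expression) and streptavidin (reagent binding) fluorescence set low and high (top ~1%) gates. Polyreactivity labels come from the gate of origin. Genes were colony-PCR amplified, MiSeq 2 × 250 sequenced and filtered by CDR length.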
Take “QVQLVESGGGLVQAGGSLRLSCAASGRIFLSYTMGWYRQAPGKERELVAAISRGGRTYYADSVKGRFTISRDNAKNTVYLQMNSLKPEDTAVYYCAKKYGRYGSLRGRTIDDYWGQGTQVTVSS”: the “polyreactivity (PSR sort gate)” value is “low polyreactivity”.

“QVQLVESGGGLVQAGGSLRLSCAASGRIFLVNAMGWDRQAPGKERELVAAINFISGSTYYADSVKGRFTISRDNAKNTVYLQMNSLKPEDTAVYYCAAYSYWSYVQRYNLEYDYWGQGTQVTVSS”: the “polyreactivity (PSR sort gate)” value is reported as “low polyreactivity”.

Regarding “QVQLVESGGGLVQAGGSLRLSCAASGRIFLVYAMGWYIQAPGKERDLVASISSRGSSTNYADSVKGRFTISRDNANNTDYLQMNSLKPEDTAVYYCAAGVYRPRYQSTAYDYWGQGTQVTVSS”, the “polyreactivity (PSR sort gate)” value is “high polyreactivity”.

“QVQLVESGGGLVQAGGSLRLSCAASGRIFLVYAMGWYRQAPGKERELVAAISWRGGRTYYADSVKGRFTISRDNAKNTVYLQMNILKPEDTAVYYCAAASKYSQFEYDYWGHGTQVTVSS”: the “polyreactivity (PSR sort gate)” value was “high polyreactivity”.

Consider “QVQLVESGGGLVQAGGSLRLSCAASGRIFLVYAMGWYRQAPGKERELVAAISWRGGRTYYADSVKGRFTISRDNAKNTVYLQMNSLKPEDTAVYYCAAASKYSQFEYDYWGQGTQVTVSS”, for which the “polyreactivity (PSR sort gate)” value is “high polyreactivity”.

Regarding “QVQLVESGGGLVQAGGSLRLSCAASGRIFLVYVMGWYRQAPAKERELVAANSWSGGSTYYADSVKGRFTISRDNAKNTVYLQMNSLKPEDTAVYYFAAYYRGRNFDYWGQATQVTVSS”, the “polyreactivity (PSR sort gate)” value is listed as “high polyreactivity”.

In the case of “QVQLVESGGGLVQAGGSLRLSCAASGRIFLWNAMGWYRPAPGKERELVAGISWRGSSTYYADSVKGRFTISRDNAKNTVYLQMNSLKPEDTAVYYCAARTRGGRGYGMYYWGQGTQVTVSS”, the “polyreactivity (PSR sort gate)” value is on record as “high polyreactivity”.

On to “QVQLVESGGGLVQAGGSLRLSCAASGRIFLWYAMGWYRQAPGKERELVAAISWDTGNTYYADSVKGRFTISRDNAKNTVYLQINSLKPEDTAVYYCNADNYEWGNNYGYWGQGTQVTVSS”, for which the “polyreactivity (PSR sort gate)” value is “low polyreactivity”.

For the sequence “QVQLVESGGGLVQAGGSLRLSCAASGRIFLWYAMGWYRQAPGKERELVAAIWRGGSTYYADSVKGRFTISRDNAKNTVYLLMNSLKPEDTAVYYCAAEDVYFGYDYWGQGTQVTVSS”, the “polyreactivity (PSR sort gate)” value is reported as “low polyreactivity”.

Turning to “QVQLVESGGGLVQAGGSLRLSCAASGRIFLWYAMGWYRQAPGKERELVAVITGGGSTNYADSVKGRFTISRDNAKNTVYLQMNSLKPEDTAVYYCATEGYGHGGETDGGVYSDLGYWGQGTQVTVSS”, the “polyreactivity (PSR sort gate)” value is on record as “low polyreactivity”.

For the sequence “QVQLVESGGGLVQAGGSLRLSCAASGRIFLYYAMGWYRQAPGKERELVAAIDSSGGNTNYADSVKGRFTISRDNAKNTVYLQMNSLKPEDTAVYYCAADFYVSADRWPNYDYWGHGTQVTVSS”, the “polyreactivity (PSR sort gate)” value is “low polyreactivity”.

In the case of “QVQLVESGGGLVQAGGSLRLSCAASGRIFLYYAMGWYRQAPGKERELVAAITSSGGDTYYADSVKGRFTISRDNAKNTVYLQMNSLKPEDTAVYYCAALGGRYRASTYGYWGQGTQVTVSS”, the “polyreactivity (PSR sort gate)” value was “high polyreactivity”.

As for “QVQLVESGGGLVQAGGSLRLSCAASGRIFLYYAMGWYRQAPGKERELVAAITSSGGGTYYADSVKGRFTISRDNAKNTVYLQMNSLKPEDTAVYYCNKAGPYYGYPHYLFYYWGQGTQVTVSS”, the “polyreactivity (PSR sort gate)” value is “high polyreactivity”.

Take “QVQLVESGGGLVQAGGSLRLSCAASGRIFLYYAMGWYRQAPGKERELVAAITSSGGGTYYADSVKGRFTISRDNAKNTVYLQMNSLKPLDTAVYYCAARRRSQWRYYYWGQGTQVTVSS”: the “polyreactivity (PSR sort gate)” value is reported as “high polyreactivity”.

Regarding “QVQLVESGGGLVQAGGSLRLSCAASGRIFLYYTMGWYRQAPGKERELVAAITRSGGSTYYADSVKGRFTISRDNAKNTVYLQMNSLKPEDTAVYYCNRAYVRYVPMNYWGQGTQVTVSS”, the “polyreactivity (PSR sort gate)” value is recorded as “high polyreactivity”.

With “QVQLVESGGGLVQAGGSLRLSCAASGRIFNAYAMGGYRQAPGKERELVAAISGGGRTYYADSVKGRFTISRDNAKNTVYLQMNSLKPEDTAVYYCAADSPTQSTLGKYDYWGQGTQVTVSS”, the “polyreactivity (PSR sort gate)” value is “high polyreactivity”.

As for “QVQLVESGGGLVQAGGSLRLSCAASGRIFNAYAMGWYRPAPGKERELVAAISSIGGRTYYADSVKGRFTISRDNAKNTVYLQMNSLKPVDTAVYYCAADWSYVRYYYWGQGTQVTVSS”, the “polyreactivity (PSR sort gate)” value is recorded as “high polyreactivity”.

Consider “QVQLVESGGGLVQAGGSLRLSCAASGRIFNFNGMGWYRQAPGKERELVAAITSGGSTYYADSVKGRFTISRDNAKNTVYLQMNSLKPEDTAVYYCAAQNAWWSNGRSYDYWGQGTQVTVSS”, for which the “polyreactivity (PSR sort gate)” value is “low polyreactivity”.

On to “QVQLVESGGGLVQAGGSLRLSCAASGRIFNGYTMGWYRQAPGKETEFVATISRSGGSTYYADSVKGRFTISRDHAKNTVYLQMNSLKPEDSAVYYCAKTYPAKWEYDYWGQGTQVTVSS”, for which the “polyreactivity (PSR sort gate)” value is reported as “low polyreactivity”.

Take “QVQLVESGGGLVQAGGSLRLSCAASGRIFNHYAMGWYRQAPGKERELVATISATGGSTYYADSVKGRFTISRDNAKNTVYLQMNSLNPEDTAVYYCNAGHLWYWRTRSARRVGMVYWGQGTQVTVSS”: the “polyreactivity (PSR sort gate)” value was “low polyreactivity”.

With “QVQLVESGGGLVQAGGSLRLSCAASGRIFNLYAMGWYRQAPGKERDLVAAINWSGDRTYYADSVKGRFTISRDNAKNTVYLQMNSLKPDDTAVYYCNADGLEIERYAYWYVFLGYDYWGQGTQVTVSS”, the “polyreactivity (PSR sort gate)” value was “low polyreactivity”.

As to “QVQLVESGGGLVQAGGSLRLSCAASGRIFNLYAMGWYRQAPGKERELVAAINWSGDRTYYADSVKGRFTISRDNAKNTVYLQMYSLKPEDTAVYYCNADGLEIERYAYWYVFLGYDYWGQGTQVTVSS”, the “polyreactivity (PSR sort gate)” value is listed as “low polyreactivity”.

On to “QVQLVESGGGLVQAGGSLRLSCAASGRIFNLYAMGWYRQAPGKERELVAGISWSGGDTTYADSVKGRFTISRDNAKNTVYLQMNSLKPEDTAVYYCNKRAYLDYGGRGYNYWGQGTRVTVSS”, for which the “polyreactivity (PSR sort gate)” value was “low polyreactivity”.

In the case of “QVQLVESGGGLVQAGGSLRLSCAASGRIFNNNAMGWYRPAPGKERELVASITRRGGRTYYADSVKGRFTISRDNAKNTVYLQMNSLKPEDTAVYYCNALAGPPEFVRNYYWGQGTQVTVSS”, the “polyreactivity (PSR sort gate)” value is given as “high polyreactivity”.

With “QVQLVESGGGLVQAGGSLRLSCAASGRIFNRYAMGWSRQAPGKERELVAAITTSADSTYADSVKGRFTISRDNAKNTVYLQRNSLKPEDTAVYYCNVASRQGSTYDYWGQGTQVTVSS”, the “polyreactivity (PSR sort gate)” value is reported as “high polyreactivity”.

Consider “QVQLVESGGGLVQAGGSLRLSCAASGRIFNRYARGWYRQAPGKERELVAAITYNGGSTYYADSVKGRFTISRDNAKNTVYLQMNSLKPEDTAVYYCNAVEVLDEGCGFWYYYWGQGTQVTVSS”, for which the “polyreactivity (PSR sort gate)” value is “high polyreactivity”.

Turning to “QVQLVESGGGLVQAGGSLRLSCAASGRIFNSNTMGWYRQAPGKERELVAAITYSGGSTYYADSVKGRFTISRDNAKNTVYLQMNSLNPEDTAVYYCAADFWEYDGPWYANDYDSWGQGTQVTVSS”, the “polyreactivity (PSR sort gate)” value is reported as “low polyreactivity”.

With “QVQLVESGGGLVQAGGSLRLSCAASGRIFNVNAMGWYRQAPGKERDLVARIDTGVGTKYADSVKGRFTISRDNAKNTVYLQMNSLKPEDTAVYYCAARSFSGYGYLVRPKWYYYWGQGTQVTVSS”, the “polyreactivity (PSR sort gate)” value was “high polyreactivity”.

Consider “QVQLVESGGGLVQAGGSLRLSCAASGRIFNVYAMGWYRQAPGKERELVASINSAGSTYYADSVKGRFTISRDNAKNTVYLQMNSLKPEDTAVYYCAADSYSVYYYTYDSWGQGTQVTVSS”, for which the “polyreactivity (PSR sort gate)” value is reported as “low polyreactivity”.

Turning to “QVQLVESGGGLVQAGGSLRLSCAASGRIFNYAMGWYRQAPGKERELVAAISRGGGRTYYADSVKGRFTISRDNAKNTVYLQMNSLKPEDTAVYYCAADLSPEYDYWGQGTQVTVSS”, the “polyreactivity (PSR sort gate)” value is reported as “high polyreactivity”.
